We go through two molecules from patent publication US12427210B2, “Compounds comprising a fibroblast activation protein ligand and use thereof” (priority 2019, dated 2025).

Experiment in all cases: radioligand displacement, compound at 10 µM
Common to all, as to conditions: remark: other sources report otherwise

The target of one assay is T1, CB1 (h) (human), P21554.
T1 chain: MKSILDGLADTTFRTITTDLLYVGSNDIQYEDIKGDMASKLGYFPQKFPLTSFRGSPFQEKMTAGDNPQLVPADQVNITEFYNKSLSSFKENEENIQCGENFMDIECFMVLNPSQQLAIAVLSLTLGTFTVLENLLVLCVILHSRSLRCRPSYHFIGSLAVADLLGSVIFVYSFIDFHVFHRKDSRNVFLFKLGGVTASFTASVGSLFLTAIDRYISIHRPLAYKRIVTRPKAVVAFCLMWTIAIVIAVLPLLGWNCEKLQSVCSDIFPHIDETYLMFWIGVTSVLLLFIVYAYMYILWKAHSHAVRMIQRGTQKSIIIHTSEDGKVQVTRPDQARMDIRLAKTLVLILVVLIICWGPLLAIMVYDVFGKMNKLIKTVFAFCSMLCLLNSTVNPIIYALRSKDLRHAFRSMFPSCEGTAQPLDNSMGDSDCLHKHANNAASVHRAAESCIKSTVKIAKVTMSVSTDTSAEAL

Assay [1] has as its target 5-HT transporter (h) (human), P31645.
For the next assay, the target named is T2, M2 (h) (human), P08172.
T2 chain: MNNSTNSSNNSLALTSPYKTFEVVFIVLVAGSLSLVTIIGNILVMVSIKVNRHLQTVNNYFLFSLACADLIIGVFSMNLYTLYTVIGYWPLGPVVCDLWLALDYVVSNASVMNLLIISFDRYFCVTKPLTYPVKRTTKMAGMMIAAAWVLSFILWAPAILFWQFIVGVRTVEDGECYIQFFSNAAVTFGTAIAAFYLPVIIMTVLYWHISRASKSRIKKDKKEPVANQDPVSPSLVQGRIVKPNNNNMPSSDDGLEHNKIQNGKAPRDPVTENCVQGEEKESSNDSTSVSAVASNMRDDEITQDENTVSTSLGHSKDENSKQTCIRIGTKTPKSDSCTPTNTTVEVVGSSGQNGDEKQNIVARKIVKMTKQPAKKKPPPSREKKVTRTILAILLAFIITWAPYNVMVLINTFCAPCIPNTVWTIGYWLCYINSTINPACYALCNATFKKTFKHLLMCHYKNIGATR

For assay [2], the target named is beta 1 (h) (human), P08588.
The next assay concerns the target T3, M1 (h) (human), P11229.
T3 chain: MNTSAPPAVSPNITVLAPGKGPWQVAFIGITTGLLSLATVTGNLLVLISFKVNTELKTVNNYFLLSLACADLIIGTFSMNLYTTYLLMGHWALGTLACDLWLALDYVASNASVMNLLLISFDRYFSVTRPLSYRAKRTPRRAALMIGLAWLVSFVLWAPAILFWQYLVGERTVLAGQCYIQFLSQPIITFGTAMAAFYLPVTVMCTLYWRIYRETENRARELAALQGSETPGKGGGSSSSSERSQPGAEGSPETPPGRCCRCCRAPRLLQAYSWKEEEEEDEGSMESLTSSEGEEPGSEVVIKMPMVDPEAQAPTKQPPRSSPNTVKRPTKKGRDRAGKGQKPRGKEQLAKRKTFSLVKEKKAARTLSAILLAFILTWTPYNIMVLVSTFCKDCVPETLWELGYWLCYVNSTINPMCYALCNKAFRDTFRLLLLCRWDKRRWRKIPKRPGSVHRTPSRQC

The target in a further assay is H2 (h) (human), P25021.
Chain of H2 (h) (human), P25021 (P25021 whole entry): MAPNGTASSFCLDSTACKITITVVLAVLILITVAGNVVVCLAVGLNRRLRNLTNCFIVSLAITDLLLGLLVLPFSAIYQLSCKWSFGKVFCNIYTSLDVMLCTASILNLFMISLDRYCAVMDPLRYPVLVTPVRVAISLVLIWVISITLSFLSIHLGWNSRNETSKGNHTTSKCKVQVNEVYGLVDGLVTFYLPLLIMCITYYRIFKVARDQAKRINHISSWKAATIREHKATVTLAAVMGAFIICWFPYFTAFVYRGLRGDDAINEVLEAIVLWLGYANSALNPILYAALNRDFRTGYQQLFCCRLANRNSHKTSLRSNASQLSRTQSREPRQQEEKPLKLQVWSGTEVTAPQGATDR
For assay [3], the target named is T4, 5-HT3 (h) (human), P46098.
T4 chain: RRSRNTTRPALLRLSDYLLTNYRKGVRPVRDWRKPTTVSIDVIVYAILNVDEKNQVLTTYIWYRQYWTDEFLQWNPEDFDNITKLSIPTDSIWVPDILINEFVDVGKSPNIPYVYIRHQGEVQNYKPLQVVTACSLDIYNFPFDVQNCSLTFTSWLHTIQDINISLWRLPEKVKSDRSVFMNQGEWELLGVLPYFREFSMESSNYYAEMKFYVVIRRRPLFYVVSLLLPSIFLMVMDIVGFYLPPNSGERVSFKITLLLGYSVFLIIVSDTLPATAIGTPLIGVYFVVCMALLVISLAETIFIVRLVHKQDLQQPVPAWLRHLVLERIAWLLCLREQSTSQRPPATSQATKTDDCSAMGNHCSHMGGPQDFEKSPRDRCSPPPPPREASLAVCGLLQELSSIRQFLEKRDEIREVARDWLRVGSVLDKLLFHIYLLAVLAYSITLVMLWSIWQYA

Assay [4] concerns the target T5, alpha 1A (h) (human), P35348.
T5 chain: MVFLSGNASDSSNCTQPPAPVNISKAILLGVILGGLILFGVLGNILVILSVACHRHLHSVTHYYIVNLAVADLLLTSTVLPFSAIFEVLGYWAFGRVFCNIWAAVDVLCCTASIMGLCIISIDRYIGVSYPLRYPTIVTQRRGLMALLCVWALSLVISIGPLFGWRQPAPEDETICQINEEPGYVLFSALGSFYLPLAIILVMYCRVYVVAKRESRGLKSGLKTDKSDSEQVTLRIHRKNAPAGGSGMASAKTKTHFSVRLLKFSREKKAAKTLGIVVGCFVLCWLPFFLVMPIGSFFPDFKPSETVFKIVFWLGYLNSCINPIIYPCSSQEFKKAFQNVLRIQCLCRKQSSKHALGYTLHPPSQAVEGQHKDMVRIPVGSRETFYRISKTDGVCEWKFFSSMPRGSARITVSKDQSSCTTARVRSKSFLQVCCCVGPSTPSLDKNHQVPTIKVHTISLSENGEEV

For assay [5], the target named is beta 2 (h) (human), P07550.
Substrate in assay [6]: N neuronal alpha 4beta 2 (h) (human), P43681

B1: Hex-[Cys(tMeBn(DOTA-AET))-Pro-Pro-Thr-Gln-Phe-Cys]-OH (3BP-3554) (peptide)
peptide: CPPTQFC
modifications: here or on the partner: N-terminal hexanoyl (Hex); Cys1 and Cys7 cyclised through tMeBn carrying DOTA-AET; free C-terminal acid (-OH)
As to B1, the % Inhibition of Specific Binding with CB1 (h) (human), P21554 was -7%; in assay [1], -8%; in the assay with M2 (h) (human), P08172, 7%; in [2] it was -13%; in the assay with M1 (h) (human), P11229 it was 8%; with H2 (h) (human), P25021, -16%. For the same molecule, the % Inhibition of Specific Binding in assay [3] is 4%; in assay [4] it was -12%; in assay [5], 8%; in assay [6], -2%.

B2: Hex-[Cys(tMeBn(DOTA-PP))-Pro-Pro-Thr-Gln-Phe-Cys]-Asp-NH2 (3BP-3407) (peptide)
peptide: CPPTQFCD
modifications: here or on the partner: N-terminal hexanoyl (Hex); Cys1 and Cys7 cyclised through tMeBn carrying DOTA-PP; C-terminal amide
As to B2, the % Inhibition of Specific Binding with CB1 (h) (human), P21554 was 5%; in assay [1], -3%; with M2 (h) (human), P08172, -4%; in assay [2], 4%; in the assay with M1 (h) (human), P11229, 6%; in the assay with H2 (h) (human), P25021, -5%. Besides, the % Inhibition of Specific Binding in [3] was 2%; in assay [4] it was 2%; in assay [5], 4%; in assay [6] it was -8%.
